According to patent publication US20190330358A1 (EUTILEX, published 2019):
Positions count from the first letter of the chain named.

T1: Glutathione S-transferase (GST)-tagged AITR (human, UniProt Q9Y5U5 26-139)
T1 construct: also called GST-AITR antigen; GST-AITR analyte; not shown: Glutathione S-transferase (GST) tag
T1 sequence (looked up): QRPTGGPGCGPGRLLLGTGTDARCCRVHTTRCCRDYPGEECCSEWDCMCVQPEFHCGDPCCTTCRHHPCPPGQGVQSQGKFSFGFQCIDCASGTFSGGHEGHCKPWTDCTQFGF

T2: R12 AA 75-139
T2 construct: also called GST fusion protein construct R12 (AITR deletion mutant)
T2 GST fusion protein: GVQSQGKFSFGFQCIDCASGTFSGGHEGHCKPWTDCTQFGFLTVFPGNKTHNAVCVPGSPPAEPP

T3: human AITR expressed on the cell surface (human, UniProt Q9Y5U5 26-241)
T3 sequence (looked up): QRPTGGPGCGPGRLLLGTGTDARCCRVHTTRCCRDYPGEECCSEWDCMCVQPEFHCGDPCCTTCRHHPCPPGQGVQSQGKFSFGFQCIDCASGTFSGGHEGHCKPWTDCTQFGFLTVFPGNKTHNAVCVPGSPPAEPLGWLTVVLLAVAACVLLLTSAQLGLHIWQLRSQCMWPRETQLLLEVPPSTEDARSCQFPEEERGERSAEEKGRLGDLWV

B1: Parental IRTCA-A Fab (Fab, V domains shown)
VH: QVQLVQSGTQVKMPGASVKVSCKASGYTFDDYGIGWVRQAPGQGLEWMGWISPYTHRTNSSPKLQDRVTMTTDTSTSTAYMELRSLRSDDTAVYYCARDGTYYDFWSGYFDNGAFDIWGQGTLVTVSS
VL: QSVVTQPPSVSAAPGQKVTISCSGSTSNIGNNYVSWYQQLPGTAPKLLIYDNYKRPSGIPDRFSGSKSGTSATLGITGLRTGDEADYFCGTWDSSLNAWVFGGGTKLTVL
B2: IRTCA-A (A27) anti-AITR monoclonal antibody (antibody, V domains shown)
VH: B1 VH
VL: B1 VL
notes: Monoclonal antibody form, detected with anti-human IgG-HRP; constant regions not specified for this antibody
B3: H1F1.M69 (H1F1.H2.J1/H1F1.L3.J1) (antibody, V domains shown)
VH: QVQLVQSGAQVKMPGESLKVSCKASGYTFTDYGMGWVRQAPGQGLEWMGWISPYTGRTNSSDKFQGRVTMTRDTSTSTAYMELRSLRSEDTAVYYCARDGTYYDFWSGYFDNNAFDIWGQGTLVTVSS
VL: B1 VL with A12G, K17R, I59V, T73S, G75A, R80Q, G82E, F88Y
notes: Made in Expi293 cells from HC and LC DNA
B4: IRTCA-A10 (Clone H1A10) Fab (Fab, V domains shown)
VH: B1 VH with G113A, I117S
VL: B1 VL
B5: IRTCA-A14 (Clone H2F8) Fab (Fab, V domains shown)
VH: B1 VH with N112T, G113A
VL: B1 VL
B6: H1F1.M74 (H1F1.H8/H1F1.L3.J2) (antibody, V domains shown)
VH: B3 VH with T30D, G44C
VL: QSVVTQPPSVSGAPGQRVTISCSGSTSNIGNNYVSWYQQLPGTAPKLLIYDNYKRPSGVPDRFSGSKSGTSASLAITGLQSEDEADYYCGSWESGSNAYKFGGGTKLTVL
notes: as for B3
B7: IRTCA-A1 (Clone L1E9) Fab (Fab, V domains shown)
VH: B1 VH
VL: B1 VL with T91S, D93E, S95G, L96S, W99Y, V100K
B8: IRTCA-A15 (Clone H1F1) Fab (Fab, V domains shown)
VH: B1 VH with G113N
VL: B1 VL
B9: IRTCA-A12 (Clone H2A10) Fab (Fab, V domains shown)
VH: B1 VH with G113A, A114T, I117F
VL: B1 VL
B10: H1F1 anti-AITR monoclonal antibody (antibody, V domains shown)
VH: B1 VH with G113N
VL: B1 VL
notes: Bivalent antibody captured by anti-human IgG(Fc); constant regions not specified for this antibody; also called parent antibody H1F1

Key:
[1] = molecular target: T1, Glutathione S-transferase (GST)-tagged …; experiment: KD ratio against parental IRTCA-A, repeated from the SPR of Table 3
[2] = molecular target: T1, Glutathione S-transferase (GST)-tagged …; experiment: SPR, Fab against the AITR antigen; ratio against parental IRTCA-A
[3] = molecular target: T1, Glutathione S-transferase (GST)-tagged …; experiment: KD ratio against parental IRTCA-A, repeated from the SPR of Table 3; remark: listed apart in the source
[4] = molecular target: T1, Glutathione S-transferase (GST)-tagged …; experiment: SPR, Fab against the AITR antigen
[5] = molecular target: T1, Glutathione S-transferase (GST)-tagged …; experiment: KD ratio against parental IRTCA-A, repeated from the SPR of Table 3; remark: listed apart in the source
R12 AA 75-139 = molecular target: T2, R12 AA 75-139; experiment: Western blot and ELISA on GST-AITR deletion constructs
Description: Binding of the anti-AITR antibodies IRTCA-A (A27), H1F1, H1F1M69 and H1F1M74 to the GST-fusion proteins R1-R12 was assessed using Western blot analysis, in which the GST-fusion proteins were resolved by 12% SDS-PAGE and subjected to immunoblotting using the antibodies IRTCA-A, H1F1, H1F1M69 and H1F1M74. Anti-Human IgG-HRP (1:5000; Jackson Laboratories, Bar Harbor, Me.) was used as the secondary antibody. Detection of chemiluminescence was obtained by using SuperSignal West Pico Chemiluminescent Substrate (Pierce, Rockford, Ill.).

[6] = molecular target: T1, Glutathione S-transferase (GST)-tagged …; experiment: SPR (Biacore T200), antibody captured by anti-human IgG(Fc), GST-AITR analyte 3.12-100 nM
Description: This example assesses the ability of mutant anti-AITR antibodies to bind to an AITR antigen recognized by the parent antibody, H1F1. Surface plasmon resonance was used in order to determine the ability of mutant anti-AITR antibodies to bind to AITR.
A Biacore T200 with a CMS sensor chip was run using HBS-EP running buffer at pH 7.4 and 3M magnesium chloride regeneration buffer. Anti-human IgG(Fc) antibodies were immobilized to the CMS chip via amine coupling and 6 minute injections at a flow rate of 5 μL/minute were performed with an immobilization buffer of 10 mM sodium acetate at pH 5.0. The capture antibodies tested were parent antibody H1F1 and mutant antibodies M69 and M74. Glutathione S-transferase (GST)-tagged AITR analyte was injected at concentrations of 3.12, 6.25, 12.5, 25, 50 and 100 nM, with an association time of 150 seconds and a dissociation time of 240 seconds.

[7] = molecular target: T3, human AITR expressed on the cell surface; experiment: cell-based or functional assay

| Binder | KD Ratio [1] [fold] | KD Ratio [2] [fold] | KD Ratio [3] [fold] | Ka [4] [M⁻¹] | Kd [4] [nM] | koff [4] [s⁻¹] | kon [4] [M⁻¹ s⁻¹] | KD Ratio [5] [fold] | binding result (R12 AA 75-139) | Kd [6] [nM] | secretion of IFN-γ by CD4+ T cells at 0.5 µg, against IRTCA-A [7] [%] |
| --- | --- | --- | --- | --- | --- | --- | --- | --- | --- | --- | --- |
| B1 | 1 | 1 | 1 | 8.74e+06 | 114 | 0.00134 | 11700 | 1 | – | – | – |
| B2 | – | – | – | – | – | – | – | – | no binding | – | – |
| B3 | – | – | – | – | – | – | – | – | no binding | 0.657 | – |
| B4 | 8.4 | 8.38 | 8.4 | 7.34e+07 | 13.6 | 0.000565 | 41500 | 8.4 | – | – | – |
| B5 | 30.1 | 30.1 | 30.1 | 2.64e+08 | 3.79 | 0.00027 | 71100 | 30.1 | – | – | ≥ 200 |
| B6 | – | – | – | – | – | – | – | – | – | 0.966 | – |
| B7 | 8.2 | 8.2 | 8.2 | 7.18e+07 | 13.9 | 0.000412 | 29600 | 8.2 | – | – | – |
| B8 | 44.4 | 44.4 | 44.4 | 3.9e+08 | 2.57 | 0.000334 | 130000 | 44.4 | – | – | ≥ 200 |
| B9 | 27.6 | 27.6 | 27.6 | 2.42e+08 | 4.13 | 0.000288 | 69700 | 27.6 | – | – | ≥ 200 |
| B10 | – | – | – | – | – | – | – | – | no binding | 0.789 | – |
